Several values for one entry are separate records, joined by “and”; a condition that tells them apart may be missing. Equal values may be shown once. Read-outs that look alike come from different tables or passages of the source.
Experiments:
[1] = Spontaneous ADPR degradation at basic pH (TLC and Pi assay, no ADPRase); assay type: physicochemical
Procedure: (§1) ADPRase activities of mitochondrial NUDT9, NUDT9H, and the purified chimeric constructs (Chi2, Chi3S, Chi4S) were quantitated by densitometric detection of the AMP product on TLC sheets. The 20-μl reaction mixtures contained 0.1, 0.5 or 1 μM purified protein, 10 mM Na-ADPR (Sigma-Aldrich, St. Louis, MO, USA), 16 mM MgCl2, and 50 mM reaction buffer (RB). The reaction buffers used were: 50 mM MES, pH 6.5 with NaOH (RB1); 50 mM HEPES, pH 7.1 with NaOH (RB2); 50 mM Tris, pH 8.5 with HCl (RB3); RB1 + 100 mM NaCl (RB4); RB2 + 100 mM NaCl (RB5), and RB3 + 100 mM NaCl (RB6). For the enzyme kinetics experiments on NUDT9 and Chi2, aliquots from the reaction mixtures were collected at the indicated time points; 3 independent experiments were performed for both proteins and each condition, and data are presented as mean ± SEM. All incubations were at room temperature (~25°C). For TLC, 1-μl aliquots of reaction mixtures were placed on Polygram SIL G/UV254 plates (Macherey-Nagel, Düren, Germany), dried and developed in 0.2 M NH4HCO3 in ethanol:water 7:3 (vol/vol). Nucleotides were visualized under UV light. Densitometry of nucleotide intensities was done using ImageJ software.
(§2) The ADPRase activities of the same proteins were additionally tested with a more sensitive assay based on colorimetric detection of Pi (Pi assay) liberated from both ADPRase products AMP and R5P by co-applied alkaline phosphatase (AP) ([Rafty et al., 2002]). AP liberates Pi from AMP and R5P, but not from intact ADPR: thus, Pi is produced from hydrolyzed ADPR at a molar ratio of 1:2. In brief, 150-μl reaction volumes containing 5 or 50 nM purified protein, 5–6 U bovine AP, 1 mM Na-ADPR, 16 mM MgCl2, and 50 mM reaction buffer at various pH values (MES 6.5, HEPES 7.1, Tris 8.5, and Tris 9.0) were incubated for 30 min at either 37°C or room temperature. The reaction was stopped and Pi visualized by adding 850 μl coloring solution (6:1 vol/vol ratio mixture of 0.42% ammonium molybdate tetrahydrate in 1N H2SO4 and 10% L-ascorbic acid) followed by incubation for 20 min at 45°C. Optical density was then measured at 820 nm (NanoPhotometer P300, Implen GmbH, Munich, Germany). Coloring solution was freshly made, and standard curve (0.050–2 mM KH2PO4) obtained, daily. Reactions with 1 mM AMP or R5P (instead of ADPR) served as positive controls. All reagents were from Sigma-Aldrich.

T5L-TRPM2 [2] = biological target: T1, T5L-TRPM2 (Homo sapiens, UniProt O94759, G984L/INS985E/Y985D); design: method as in Tóth and Csanády, 2012; settings: previously established; ref Tóth and Csanády, 2012; read-out: half-saturating concentration; cited from earlier work
T5L-TRPM2-Chi2 = T5L-TRPM2-Chi2 (Homo sapiens, UniProt O94759+Q9BW91, G984L/INS985E/Y985D, form not given); experiment: Excised inside-out patch-clamp recordings, ADPR-dependent channel activation; assay type: cell-based; settings: current in 1 μM ADPR divided by that in 32 μM ADPR; compared to TRPM2
Excerpt: The noninactivating TRPM5-like pore mutant of TRPM2 (T5L-TRPM2) was contained in the pGEMHE vector ([Tóth and Csanády, 2012]). The NUDT9H domain of TRPM2 was replaced by Chi2A, Chi3 or Chi4 using the native BlpI-site upstream of the domain and an XbaI-site downstream of the Stop-codon in each chimeric construct. Single-base mutations to generate Stop-codons immediately upstream of the hexahistidine tags of Chi3 and Chi4 were then introduced (QuickChange II, Agilent Technologies, Santa Clara, CA, USA), yielding TRPM2-Chi3 and TRPM2-Chi4; TRPM2-Chi2 lacked a His-tag because it was derived from Chi2A.
(§3) Oocytes isolated from anaesthetized Xenopus laevis were digested with collagenase, injected with 10–70 ng cRNA, and stored at 18°C. Recordings were done 2–3 days after injection.
The tip of the patch pipette was filled to ~1 cm height with 140 mM Na-gluconate, 2 mM Mg-gluconate2, 10 mM HEPES (pH 7.4 with NaOH); free [Ca^2+] ~4 μM. The pipette electrode was placed into a 140-mM NaCl-based solution carefully layered on top. […] Macroscopic TRPM2 currents were recorded at 25°C at a membrane potential of −20 mV. […]
Dose dependence of ADPR-induced current activation, expressed as the ratio of mean macroscopic currents observed in the presence of various test [ADPR] […]

T5L-TRPM2 [3] = biological target: T1, T5L-TRPM2; experiment: as above; assay type: cell-based
Procedure: as §3
The tip of the patch pipette was filled to ~1 cm height with 140 mM Na-gluconate, 2 mM Mg-gluconate2, 10 mM HEPES (pH 7.4 with NaOH); free [Ca^2+] ~4 μM. The pipette electrode was placed into a 140-mM NaCl-based solution carefully layered on top. Bath solution contained 140 mM Na-gluconate, 2 mM Mg-gluconate2, 10 mM HEPES (pH 7.1 with NaOH), and either 1 mM EGTA (to obtain 'zero' (~8 nM) Ca^2+) or 1 mM Ca-gluconate2 (to obtain 125 μM free Ca^2+) ([Csanády and Törocsik, 2009]). Na-ADPR was used at final concentrations of 0.32, 1, 3.2, 10, 32, 100, or 1000 μM, and the Na^+ salt of ε-ADPR at 100 μM. Macroscopic TRPM2 currents were recorded at 25°C at a membrane potential of −20 mV. Currents were amplified, filtered at 2 kHz (Axopatch 200B), digitized at 10 kHz (Digidata 1322A), and stored to disk (Pclamp9, Molecular Devices, Sunnyvale, CA, USA).
Dose dependence of ADPR-induced current activation, expressed as the ratio of mean macroscopic currents observed in the presence of various test [ADPR] (I) and 32 (or 100) μM ADPR (Imax) in the same patch, was fitted to the Hill equation (I/Imax = [ADPR]^n/(K^n+[ADPR]^n). Dose dependence of ADPR-activation in the presence of 100 μM ε-ADPR was expressed as the ratio of the currents observed in the presence of various test [ADPR] + 100 μM ε-ADPR (I) and 100 μM ADPR alone (Imax) in the same patch, and was fitted to the Hill equation substituting K' = K(1+[ε-ADPR]/KI) instead of K (K and n fixed to their control values). Macroscopic current decay time courses following removal of ADPR or Ca^2+ were fitted by single exponentials using the method of least squares.

[4] = design: method as in Perraud et al., 2001, 2003; settings: ref Perraud et al., 2001, 2003, cited from earlier work
[5] = Solubility of recombinant proteins expressed in E.coli; assay type: physicochemical; settings: for Soluble: expressed in E.coli, Table 1
Procedure: The soluble proteins (NUDT9 and Chi2) were expressed and purified as previously described for mitochondrial NUDT9 ([Tóth et al., 2014]). In brief, bacterial cultures were grown at 37°C in Luria-Bertani medium supplemented with the appropriate antibiotic and induced with 1 mM isopropyl-β-D-1-thiogalactopyranoside (IPTG) upon reaching OD600 of ~0.7. After 3 hr of incubation, cells were harvested and lysed with sonication in 20 mM Tris (pH 8.5 with HCl) / 200 mM NaCl. The cleared supernatant was incubated with Ni-Sepharose 6 Fast Flow resin (GE Healthcare Hungary, Hungary) for 3 hr under gentle rotation. The resin was then washed with lysis buffer supplemented with 20 mM imidazole, and the protein eluted with a buffer containing 20 mM Tris (pH 8.5 with HCl), 100 mM NaCl, and 400 mM imidazole.
Chi3S, Chi4S and NUDT9H were little soluble to insoluble when expressed at 37°C, the majority of the proteins ending up in inclusion bodies, but gave tractable (~1–5%) soluble fractions when induced with 0.1 mM IPTG at 25°C overnight. NUDT9H was then purified as NUDT9. Chi3S and Chi4S were purified using Strep-Tactin chromatography following the manufacturer’s instructions (IBA GmbH, Göttingen, Germany).

[6] = Enzymatic (ADPRase) activity assay using thin-layer chromatography (TLC); assay type: biochemical; settings: for ADPRase activity (conversion of ADPR into AMP and R5P, TLC): 1 μM protein, 16 mM Mg2+, 2-hr incubation, pH 6.5, 7.1 and 8.5, absence or presence of 100 mM NaCl; for ADPRase activity (conversion of ADPR into AMP and R5P, TLC) / kcat: 10 mM ADPR, room temperature; for Enzyme: Table 1 summary of ADPRase activity; for kcat: 0.5 μM protein
Procedure: as §1

[7] = Enzymatic activity assay using colorimetric detection of inorganic phosphate (Pi assay, coupled to alkaline phosphatase); assay type: biochemical; settings: 5 or 50 nM protein co-applied with 1 mM ADPR and AP, 30 min, pH 6.5-9.0, 37°C or RT
Procedure: as §2, with “Reactions with 1 mM AMP or R5P (instead of ADPR) served as positive controls. All reagents were from Sigma-Aldrich.” left out
Molecular turnover rates (kcat) for NUDT9 were calculated from the [Pi] released in samples containing 5 nM NUDT9, in which [ADPR] remained >0.9 mM (i.e., saturating [[Perraud et al., 2003]]) throughout the 30-min incubation period, using the equation kcat = 0.5[Pi]released/5 nM/1800 s.

T1 sequence (O94759 whole entry, stated change not applied): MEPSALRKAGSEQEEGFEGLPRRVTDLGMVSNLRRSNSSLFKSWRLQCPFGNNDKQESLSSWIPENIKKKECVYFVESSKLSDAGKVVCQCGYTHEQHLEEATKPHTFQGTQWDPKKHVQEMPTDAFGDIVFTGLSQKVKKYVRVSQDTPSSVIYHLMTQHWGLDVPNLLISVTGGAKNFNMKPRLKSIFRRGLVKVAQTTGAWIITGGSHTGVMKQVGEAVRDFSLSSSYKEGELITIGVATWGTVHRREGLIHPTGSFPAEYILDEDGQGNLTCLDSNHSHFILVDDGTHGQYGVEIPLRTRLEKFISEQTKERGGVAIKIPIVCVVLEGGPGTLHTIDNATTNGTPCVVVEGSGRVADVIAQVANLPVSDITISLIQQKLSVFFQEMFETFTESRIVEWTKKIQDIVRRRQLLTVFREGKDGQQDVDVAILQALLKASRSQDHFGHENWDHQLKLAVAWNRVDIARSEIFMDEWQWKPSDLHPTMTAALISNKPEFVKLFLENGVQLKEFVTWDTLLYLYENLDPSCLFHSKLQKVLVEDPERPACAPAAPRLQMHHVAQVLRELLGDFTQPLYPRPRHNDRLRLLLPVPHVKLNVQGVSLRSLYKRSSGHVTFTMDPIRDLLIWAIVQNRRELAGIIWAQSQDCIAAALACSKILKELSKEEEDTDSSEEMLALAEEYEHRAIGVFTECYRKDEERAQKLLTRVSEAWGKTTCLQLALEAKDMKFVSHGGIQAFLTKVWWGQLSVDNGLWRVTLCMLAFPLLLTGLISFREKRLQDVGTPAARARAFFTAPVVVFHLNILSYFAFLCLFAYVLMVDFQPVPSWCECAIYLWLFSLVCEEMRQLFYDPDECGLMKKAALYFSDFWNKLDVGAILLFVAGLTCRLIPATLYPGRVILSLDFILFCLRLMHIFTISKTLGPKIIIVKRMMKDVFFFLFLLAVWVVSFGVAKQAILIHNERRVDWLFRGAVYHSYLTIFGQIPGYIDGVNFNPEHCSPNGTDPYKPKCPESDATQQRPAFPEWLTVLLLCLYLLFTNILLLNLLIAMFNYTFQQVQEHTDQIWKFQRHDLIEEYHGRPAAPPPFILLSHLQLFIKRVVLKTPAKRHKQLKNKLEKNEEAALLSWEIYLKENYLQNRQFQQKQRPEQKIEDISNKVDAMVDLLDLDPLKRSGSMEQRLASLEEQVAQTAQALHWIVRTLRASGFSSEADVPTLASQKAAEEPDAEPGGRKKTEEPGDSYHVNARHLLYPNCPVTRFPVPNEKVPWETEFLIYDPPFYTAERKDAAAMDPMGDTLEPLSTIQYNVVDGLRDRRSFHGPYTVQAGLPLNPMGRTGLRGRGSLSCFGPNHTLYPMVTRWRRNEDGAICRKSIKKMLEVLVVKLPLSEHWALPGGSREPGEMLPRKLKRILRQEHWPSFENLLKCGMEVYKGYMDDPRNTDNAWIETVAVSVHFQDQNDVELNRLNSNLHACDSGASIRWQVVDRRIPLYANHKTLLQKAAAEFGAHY
Chain of T5L-TRPM2-Chi2 (O94759 1-1353, stated change not applied, one chain of several): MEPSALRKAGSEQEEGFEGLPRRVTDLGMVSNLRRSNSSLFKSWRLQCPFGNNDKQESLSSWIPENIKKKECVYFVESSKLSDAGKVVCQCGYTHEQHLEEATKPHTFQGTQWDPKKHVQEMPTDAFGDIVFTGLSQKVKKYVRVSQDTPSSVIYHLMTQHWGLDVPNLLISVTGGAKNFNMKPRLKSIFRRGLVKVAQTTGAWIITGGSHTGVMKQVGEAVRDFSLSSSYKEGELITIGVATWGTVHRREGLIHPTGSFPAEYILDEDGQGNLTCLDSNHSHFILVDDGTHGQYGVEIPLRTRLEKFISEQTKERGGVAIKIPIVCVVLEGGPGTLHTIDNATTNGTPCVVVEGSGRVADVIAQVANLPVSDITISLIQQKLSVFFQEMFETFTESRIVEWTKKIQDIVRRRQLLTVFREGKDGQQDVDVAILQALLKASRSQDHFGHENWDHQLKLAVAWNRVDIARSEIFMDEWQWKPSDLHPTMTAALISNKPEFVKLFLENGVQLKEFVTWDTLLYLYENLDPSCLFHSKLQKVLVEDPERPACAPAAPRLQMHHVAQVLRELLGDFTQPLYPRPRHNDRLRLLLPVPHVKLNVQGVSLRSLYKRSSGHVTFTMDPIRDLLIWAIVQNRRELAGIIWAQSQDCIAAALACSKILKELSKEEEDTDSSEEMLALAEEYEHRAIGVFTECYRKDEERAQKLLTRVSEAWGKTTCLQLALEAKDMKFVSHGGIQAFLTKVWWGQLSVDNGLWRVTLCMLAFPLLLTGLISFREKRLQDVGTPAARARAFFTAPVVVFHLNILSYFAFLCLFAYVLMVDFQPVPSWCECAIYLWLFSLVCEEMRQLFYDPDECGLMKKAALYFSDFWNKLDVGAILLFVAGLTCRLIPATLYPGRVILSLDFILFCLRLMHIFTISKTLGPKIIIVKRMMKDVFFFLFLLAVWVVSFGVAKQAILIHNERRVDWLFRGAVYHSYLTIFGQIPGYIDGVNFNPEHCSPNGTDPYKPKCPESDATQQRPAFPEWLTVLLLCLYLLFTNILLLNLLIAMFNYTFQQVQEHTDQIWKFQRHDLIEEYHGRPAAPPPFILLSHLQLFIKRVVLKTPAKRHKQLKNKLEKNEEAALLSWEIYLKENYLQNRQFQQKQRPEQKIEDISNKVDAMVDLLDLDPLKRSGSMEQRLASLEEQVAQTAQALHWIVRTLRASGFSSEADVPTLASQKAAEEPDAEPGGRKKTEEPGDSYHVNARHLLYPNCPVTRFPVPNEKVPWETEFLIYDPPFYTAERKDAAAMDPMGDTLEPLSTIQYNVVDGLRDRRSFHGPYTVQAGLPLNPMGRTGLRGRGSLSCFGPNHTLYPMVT

**Q.** Which results are given for `Nc1ncnc2c1ncn2C1OC(COP(=O)(O)OP(=O)(O)OCC2OC(O)C(O)C2O)C(O)C1O` (centres unmarked) [ADPR, adenosine 5'-diphosphoribose]?
**A.** spontaneous hydrolysis of applied ADPR (Pi assay) ([1]; 1 mM ADPR, 30 min, with AP, with or without Chi4S or NUDT9H): ~ 1%; spontaneous degradation ([1]; 25°C and pH 8.5, 20 min): ~ 0.3%; time constant for spontaneous ADPR hydrolysis ([1]; 25°C and pH 8.5, assuming exponential decay): ~ 100 hr; decay time constant of spontaneous degradation ([1]; 25°C, pH 8.5): about 100 h; spontaneous degradation ([1]; 25°C, pH 8.5, 2 hr): ~ 2%; ADPR degraded spontaneously ([1]; 25°C, pH 8.5, 24 hr): ~ 20%; spontaneous degradation ([1]; 37°C and pH 9, 30 min): ~ 1%; AMP which forms spontaneously ([1]; 20 min, pH 8.5, 10 mM ADPR): ~ 30 μM; stability ([1]; neutral or slightly acidic pH): inherently stable; EC50 (T5L-TRPM2 [2]): 1000 nM; Fractional activation by 1 μM ADPR (T5L-TRPM2-Chi2): reduced; n (Hill slope for ADPR binding) (T5L-TRPM2 [3]; Figure 8B): 1.3±0.1; EC50 (T5L-TRPM2 [3]; inside-out patches from Xenopus laevis oocytes, saturating Ca2+, −20 mV, Hill fit (Figure 7H), read-out: K1/2 for ADPR-induced current activation): 1300 ± 100 nM

**Q.** Which results are given for “NUDT9H: isolated C-terminal cytosolic NUDT9-homology domain of TRPM2, recombinant, hexahistidine tag”?
**A.** reported turnover rate ([4]; isolated NUDT9H): ~ 0.1 s^-1; kcat ([4]; pH 9 and 37°C): ~ 0.06 s^-1; reported enzymatic activity, lower than that of NUDT9 [4]: about 100 fold; stability of purified soluble preparation ([5]; 4°C): precipitated overnight at 4 °C; Soluble [5]: No^¶; ADPRase activity (conversion of ADPR into AMP and R5P, TLC) [6]: failed to hydrolyze the nucleotide; Enzyme [6]: No; Pi release [7]: did not result in any significant Pi release

B1: NUDT9: soluble, Mg2+-dependent mitochondrial ADPR pyrophosphatase, recombinant, C-terminal hexahistidine tag (protein)
chain: ENSHNKARTSPYPGSKVERSQVPNEKVGWLVEWQDYKPVEYTAVSVLAGPRWADPQISESNFSPKFNEKDGHVERKSKNGLYEIENGRPRNPAGRTGLVGRGLLGRWGPNHAADPIITRWKRDSSGNKIMHPVSGKHILQFVAIKRKDCGEWAIPGGMVDPGEKISATLKREFGEEALNSLQKTSAEKREIEEKLHKLFSQDHLVIYKGYVDDPRNTDNAWMETEAVNYHDETGEIMDNLMLEAGDDAGKVKWVDINDKLKLYASHSQFIKLVAEKRDAHWSEDSEADCHAL
modifications: left off: His6, C-terminal, kept
notes: soluble, Mg2+-dependent mitochondrial ADPR pyrophosphatase, recombinant, C-terminal hexahistidine tag
**Q.** For B1, which kcat ([4]; previously reported values) is on record?
**A.** ~ 8 s^-1

**Q.** What about the Soluble [5] of the same molecule?
**A.** Yes

**Q.** What about the “ADPRase activity (conversion of ADPR into AMP and R5P, TLC)” value [6] of the same molecule?
**A.** active ADPRases

**Q.** And the “decrease of kcat from pH 8.5 to 6.5” value ([6]; TLC kinetics)?
**A.** ~ 1.4 fold

**Q.** And the Enzyme [6]?
**A.** Yes

**Q.** What about the kcat ([6]; pH 6.5 (RB1)) of the same molecule?
**A.** 6.4 s⁻¹

**Q.** And the kcat ([6]; pH 7.1 (RB2))?
**A.** 7.6 s⁻¹

**Q.** And the kcat ([6]; pH 8.5 (RB3))?
**A.** 9 s⁻¹ and 9.0 s⁻¹
